Reference: the supplement of paper PMC9732359
± gives the uncertainty stated by the source.

test: protein stability index of a GFP-peptide fusion (yeast GPS) (PSI 1-4); higher = more stable; sorted into four equal gates, so the index is relative within each strain; conditions: doa10∆
Summary of the method: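 The protein stability index combines read frequencies across sorting gates, each weighted by its gate number and then summed. To obtain those frequencies, a pooled yeast library of GFP fusions to tiled 17-residue yeast protein peptides, on a plasmid also expressing Cherry, was grown to mid-log phase in leucine-free medium. The cells were sorted into four equal gates by GFP/Cherry ratio before plasmid amplification by PCR and Illumina sequencing.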

Q: With RAVANRTDATFIRVIGS [RPT1] as the sequence, how does the protein stability index read?
A: 3.22 ± 0.1

Q: With RCMMAAQYFYSGAYSYP [DIS3] as the sequence, how does the protein stability index read?
A: 2.14 ± 0.12

Q: For RCTKIIKGNGESDETTT [RPT1], which protein stability index is on record?
A: 3.18 ± 0.14

Q: With RCWKANIPWDVPGMPAP [PRP8] as the sequence, how does the protein stability index read?
A: 2.15 ± 0.081

Q: For RDCIDISIFSTPGSVSL [PRP8], which protein stability index is on record?
A: 2.79 ± 0.11

Q: With RDGVLTVTLNKNREVVQ [RRP45] as the sequence, how does the protein stability index read?
A: 2.71 ± 0.11

Q: For RDRKLITDKGTVDGRLY [YJL039C/NUP192], which protein stability index is on record?
A: 3.16 ± 0.12

Q: For RDRTSGQKLLAIKYGYE [SRB4], which protein stability index is on record?
A: 2.9 ± 0.15

Q: Which protein stability index does the source give for RDVELSSDELKVIEEQL [SMC4] here?
A: 3.27 ± 0.058

Q: For REAIRPGHEMEDFLDKS [AAR2], which protein stability index is on record?
A: 3.23 ± 0.062

Q: For REDTPLSQNESTRASTV [ISW2], which protein stability index is on record?
A: 2.96 ± 0.067

Q: For REHSLQLFRTNKVQIMI [PRP28], which protein stability index is on record?
A: 1.61 ± 0.063

Q: Which protein stability index does the source give for REKNALKRLAWQYIVID [ISW2] here?
A: 2.1 ± 0.099

Q: With RENIAMLKRFFPGVKGL [SMC1] as the sequence, how does the protein stability index read?
A: 2.5 ± 0.17

Q: With RERRIHVTQEDFELAVG [RPT6] as the sequence, how does the protein stability index read?
A: 2.38 ± 0.074

Q: With REYLEEYKSLFVVGVDN [RPP0] as the sequence, how does the protein stability index read?
A: 3.11 ± 0.075

Q: Which protein stability index does the source give for RFEVINNETEQLKAEEK [SMC1] here?
A: 1.72 ± 0.08

Q: Which protein stability index does the source give for RFNHLVTRLFFICSIIQ [YML031W/NDC1] here?
A: 1.22 ± 0.046

Q: Which protein stability index does the source give for RFRKAQCPIIERLTNSL [RPS5] here?
A: 2.32 ± 0.2

Q: With RFSYSPPKEGNYEIVFD [YMR129W/POM152] as the sequence, how does the protein stability index read?
A: 3.05 ± 0.29

Q: With RFWSFMKTQRFVSNMGF [SIR4] as the sequence, how does the protein stability index read?
A: 1.55 ± 0.21

Q: Which protein stability index does the source give for RGEIREIEQVCKQVHDK [MED7] here?
A: 3.06 ± 0.077

Q: Which protein stability index does the source give for RGFGKINKQRVPLSDNA [RPL7A] here?
A: 3.03 ± 0.091

Q: Which protein stability index does the source give for RGGGHHSFEDAHTPMLQ [FAS1] here?
A: 3.3 ± 0.26

Q: With RGLTPQEFFFHAMGGRE [RPO21] as the sequence, how does the protein stability index read?
A: 2.32 ± 0.05

Q: Which protein stability index does the source give for RGVRPYKHIDASGSINR [RPS19A] here?
A: 3.23 ± 0.089

Q: With RHHWQYTKASLAKERQK [SSN8] as the sequence, how does the protein stability index read?
A: 1.74 ± 0.072

Q: With RHMALLVDVMTTQGGLT [RPO21] as the sequence, how does the protein stability index read?
A: 1.92 ± 0.15

Q: For RHNKSHTLCNRCGRRSF [RPL37A], which protein stability index is on record?
A: 3.25 ± 0.045

Q: For RHSNALVDILPPDSDSS [RPT3], which protein stability index is on record?
A: 2.51 ± 0.076

Q: With RIFKITEKLSPLASEES [YGL100W/SEH1] as the sequence, how does the protein stability index read?
A: 2.82 ± 0.056

Q: With RIGKHRKHPGGRGMAGG [RPL28] as the sequence, how does the protein stability index read?
A: 2.92 ± 0.12

Q: Which protein stability index does the source give for RIHTNDNDIMNLGSRTK [SSN3] here?
A: 3.08 ± 0.048

Q: For RIIEKSVRRSGALDVEG [RRP45], which protein stability index is on record?
A: 2.43 ± 0.07

Q: For RILSTLDRELLKPSMSV [RPT3], which protein stability index is on record?
A: 3.04 ± 0.081

Q: For RIYTNSFIDIMEVLGIE [RPO21], which protein stability index is on record?
A: 2.84 ± 0.059

Q: Which protein stability index does the source give for RKANREEKLKANKEKKR [RPL24B] here?
A: 2.86 ± 0.074

Q: Which protein stability index does the source give for RKKKFVLDVDPKYAKQK [ISW2] here?
A: 2.91 ± 0.077

Q: For RKWAARAASAKIESSVE [RPS8A], which protein stability index is on record?
A: 3.21 ± 0.087

Q: For RKYEISFGKIYVTKPMV [RPB2], which protein stability index is on record?
A: 1.95 ± 0.092

Q: With RLAKKPSMKKIKIEPSA [SIR3] as the sequence, how does the protein stability index read?
A: 2.48 ± 0.094

Q: Which protein stability index does the source give for RLGFFYNDQLYVKEKLE [RPN7] here?
A: 2.56 ± 0.17

Q: Which protein stability index does the source give for RLISQSLLASKSTYRTP [RIP1] here?
A: 2.79 ± 0.12

Q: For RLMMNSKVGSADTGRDD [RPN11], which protein stability index is on record?
A: 3.39 ± 0.085

Q: For RLNYLYQISAYQTRARQ [RPR2], which protein stability index is on record?
A: 1.56 ± 0.034

Q: With RLQAKRLKDVEWVKLHR [RMP1] as the sequence, how does the protein stability index read?
A: 2.97 ± 0.069

Q: Which protein stability index does the source give for RLQQGRRLPMTMFTAEQ [SNF2] here?
A: 3.09 ± 0.053

Q: With RLRKRVTIIPLDKIYTR [SMC2] as the sequence, how does the protein stability index read?
A: 2 ± 0.073

Q: Which protein stability index does the source give for RLTMGNVFTPEISSQIE [RRI2] here?
A: 2.7 ± 0.11

Q: With RLWLKKVMEEEEQDCKC [POP8] as the sequence, how does the protein stability index read?
A: 2.5 ± 0.095

Q: Which protein stability index does the source give for RMPIMLRSNKCILYDAD [RET1] here?
A: 1.23 ± 0.15

Q: With RMRFPPFDDDEPPLSYE [PRP8] as the sequence, how does the protein stability index read?
A: 2.63 ± 0.047

Q: With RMRNRALREMRKSDQQD [POP1] as the sequence, how does the protein stability index read?
A: 3.61 ± 0.13

Q: Which protein stability index does the source give for RMRVSVLEKYEVIGYIA [SSN3] here?
A: 1.4 ± 0.14

Q: Which protein stability index does the source give for RMSYGSHDKKTKCSTVV [SRP14] here?
A: 2.96 ± 0.092

Q: For RNEQVTIELKNGTTVWG [SMD1], which protein stability index is on record?
A: 1.23 ± 0.099

Q: Which protein stability index does the source give for RNEVLESMDFLVLADAF [YCS4] here?
A: 2.04 ± 0.048

Q: With RNFDTHENYIQDDDFPL [MCD1] as the sequence, how does the protein stability index read?
A: 2.92 ± 0.06

Q: Which protein stability index does the source give for RNLQMGLRNQNMVRNNN [GRR1] here?
A: 2.62 ± 0.088

Q: Which protein stability index does the source give for RNMIIVPEMIGSVVGIY [RPS15] here?
A: 1.31 ± 0.094

Q: With RNNFLAENSHTQPKATS [PUP1] as the sequence, how does the protein stability index read?
A: 3.14 ± 0.069

Q: For RNRGKIHSGVLSSIESD [YMR153W/NUP53], which protein stability index is on record?
A: 2.93 ± 0.1

Q: Which protein stability index does the source give for RNSYPASFYSVNTEKKT [RPN3] here?
A: 3.4 ± 0.29

Q: With RNTYQSAMGKQAMGVFL [RPB2] as the sequence, how does the protein stability index read?
A: 1.62 ± 0.097

Q: Which protein stability index does the source give for RPDITMYCRPAPSDFSE [GRR1] here?
A: 2.16 ± 0.12

Q: With RPKKITGWITQSTPVLL [RPN1] as the sequence, how does the protein stability index read?
A: 2.21 ± 0.048

Q: For RPLKLERGFACIPLVGI [FAS1], which protein stability index is on record?
A: 1.69 ± 0.067

Q: For RPPNGIKNFKSLLLSSS [SSN2], which protein stability index is on record?
A: 1.51 ± 0.047

Q: Which protein stability index does the source give for RPPVKAILQEKILSILN [ECM29] here?
A: 1.46 ± 0.058

Q: With RQCFQDNCCDFKVRTNL [MED1] as the sequence, how does the protein stability index read?
A: 3.28 ± 0.053

Q: With RQDGSYTYHSTNKDNKA [ARP9] as the sequence, how does the protein stability index read?
A: 2.67 ± 0.062

Q: For RQEVTKFAKANIGYVMG [RPN4], which protein stability index is on record?
A: 1.2 ± 0.15

Q: With RQFSNEEVNRCYLRWQH [SNF2] as the sequence, how does the protein stability index read?
A: 2.83 ± 0.081

Q: Which protein stability index does the source give for RQINKLIDSLPGVDVSA [SRB7] here?
A: 2.43 ± 0.056

Q: Which protein stability index does the source give for RQIRPIMERIKSSLSLR [ITC1] here?
A: 1.26 ± 0.06

Q: Which protein stability index does the source give for RQKINGCEANIHSLVKQ [YIL149C/MLP2] here?
A: 3.12 ± 0.14

Q: Which protein stability index does the source give for RQLQYETLGDILKRDFE [ECM29] here?
A: 2.92 ± 0.075

Q: For RQRELLIAHQRSAWNNN [GRR1], which protein stability index is on record?
A: 1.94 ± 0.045

Q: Which protein stability index does the source give for RQSSDESDNYRLLPNGS [YML031W/NDC1] here?
A: 3.03 ± 0.06

Q: Which protein stability index does the source give for RQTTSNTGLLNKANIQA [RPN11] here?
A: 3 ± 0.092

Q: Which protein stability index does the source give for RRKTTKQNSSSDINQND [YDL088C/ASM4] here?
A: 3.16 ± 0.096

Q: With RRMAFKPFGSAKSDETK [YLR335W/NUP2] as the sequence, how does the protein stability index read?
A: 2.75 ± 0.073

Q: Which protein stability index does the source give for RRWNKLCTLNDSKGSLY [YGL100W/SEH1] here?
A: 3.31 ± 0.078

Q: With RRYKLLTATPNSINKTT [POP1] as the sequence, how does the protein stability index read?
A: 2 ± 0.046

Q: With RSALEKGSRFISTLQVK [RPB2] as the sequence, how does the protein stability index read?
A: 1.47 ± 0.13

Q: With RSISEPSINLDPDNTSF [ESC2] as the sequence, how does the protein stability index read?
A: 2.9 ± 0.074

Q: With RSKFGGDFLDFQVHERL [ARP7] as the sequence, how does the protein stability index read?
A: 3.15 ± 0.11

Q: For RSPEEIRRTFNIVNDFT [SKP1], which protein stability index is on record?
A: 1.36 ± 0.058

Q: With RSRKTVKAQRPITGASL [RPL24A] as the sequence, how does the protein stability index read?
A: 3.34 ± 0.077

Q: Which protein stability index does the source give for RSRYRREIDALKKQLHV [YIL149C/MLP2] here?
A: 3.24 ± 0.074

Q: For RTDQYTIDNIDSENFSF [YMR129W/POM152], which protein stability index is on record?
A: 2.88 ± 0.042

Q: Which protein stability index does the source give for RTGPKALPDAVTIIEPK [RPS3] here?
A: 2.97 ± 0.058

Q: With RTKNLVSKMEKAEKTLK [SMC4] as the sequence, how does the protein stability index read?
A: 2.91 ± 0.22

Q: With RTMYFILDGQDVEENRS [YJR042W/NUP85] as the sequence, how does the protein stability index read?
A: 2.45 ± 0.077

Q: For RTPVIISLRNNHKIIAR [SMD2], which protein stability index is on record?
A: 1.77 ± 0.042

Q: Which protein stability index does the source give for RTQPWSIMPDLYFYRDP [RPS0A] here?
A: 2.55 ± 0.051

Q: For RTVAGFSNVELPQCIIP [ARP7], which protein stability index is on record?
A: 2.8 ± 0.05

Q: Which protein stability index does the source give for RVLQLLAVIMDNIGEID [YCG1] here?
A: 1.93 ± 0.073

Q: With RVRNKDIRKFLDGIYVS [RPL9A] as the sequence, how does the protein stability index read?
A: 1.91 ± 0.081

Q: With RVRVTGGGHVSQVYAIR [RPS16A] as the sequence, how does the protein stability index read?
A: 2.61 ± 0.048

Q: Which protein stability index does the source give for RYQIMLPEQLKSGKFCS [SNM1] here?
A: 2.74 ± 0.071

Q: Which protein stability index does the source give for SAAELERLDKDKDRDTR [SNF5] here?
A: 1.76 ± 0.087

Q: For SADDDVNNGNIPSQRGT [SIR3], which protein stability index is on record?
A: 2.97 ± 0.24

Q: With SAFMKFSKAIEWDMLNV [BRR2] as the sequence, how does the protein stability index read?
A: 2.15 ± 0.07
